Laboratory results taken from patent US9618524B2, “Method, composition, isolation and identification of a plaque particle and related biomarker” (Plaxgen Inc., priority 2012, dated 2017).

B1: Inter-alpha-trypsin inhibitor heavy chain H1 (protein)
chain: SKSSEKRQAVDTAVDGVFIRSLKVNCKVTSRFAHYVVTSQVVNTANEAREVAFDLEIPKTAFISDFAVTADGNAFIGDIKDKVTAWKQYRKAAISGENAGLVRASGRTMEQFTIHLTVNPQSKVTFQLTYEEVLKRNHMQYEIVIKVKPKQLVHHFEIDVDIFEPQGISKLDAQASFLPKELAAQTIKKSFSGKKGHVLFRPTVSQQQSCPTCSTSLLNGHFKVTYDVSRDKICDLLVANNHFAHFFAPQNLTNMNKNVVFVIDISGSMRGQKVKQTKEALLKILGDMQPGDYFDLVLFGTRVQSWKGSLVQASEANLQAAQDFVRGFSLDEATNLNGGLLRGIEILNQVQESLPELSNHASILIMLTDGDPTEGVTDRSQILKNVRNAIRGRFPLYNLGFGHNVDFNFLEVMSMENNGRAQRIYEDHDATQQLQGFYSQVAKPLLVDVDLQYPQDAVLALTQNHHKQYYEGSEIVVAGRIADNKQSSFKADVQAHGEGQEFSITCLVDEEEMKKLLRERGHMLENHVERLWAYLTIQELLAKRMKVDREERANLSSQALQMSLDYGFVTPLTSMSIRGMADQDGLKPTIDKPSEDSPPLEMLGPRRTFVLSALQPSPTHSSSNTQRLPDRVTGVDTD
B2: Alpha-2-HS-glycoprotein (protein)
chain 1: APHGPGLIYRQPNCDDPETEEAALVAIDYINQNLPWGYKHTLNQIDEVKVWPQQPSGELFEIEIDTLETTCHVLDPTPVARCSVRQLKEHAVEGDCDFQLLKLDGKFSVVYAKCDSSPDSAEDVRKVCQDCPLLAPLNDTRVVHAAKAALAAFNAQNNGSNFQLEEISRAQLVPLPPSTYVEFTVSGTDCVAKEATEAAKCNLLAEKQYGFCKATLSEKLGGAEVAVTCMVFQTQPVSSQPQPEGANEAVPTPVVDPDAPPSPPLGAPGLPPAGSPPDSHVL
chain 2: TVVQPSVGAAAGPVVPPCPGRIRHFKV
B3: Afamin (protein)
chain: LPTQPRDIENFNSTQKFIEDNIEYITIIAFAQYVQEATFEEMEKLVKDMVEYKDRCMADKTLPECSKLPNNVLQEKICAMEGLPQKHNFSHCCSKVDAQRRLCFFYNKKSDVGFLPPFPTLDPEEKCQAYESNRESLLNHFLYEVARRNPFVFAPTLLTVAVHFEEVAKSCCEEQNKVNCLQTRAIPVTQYLKAFSSYQKHVCGALLKFGTKVVHFIYIAILSQKFPKIEFKELISLVEDVSSNYDGCCEGDVVQCIRDTSKVMNHICSKQDSISSKIKECCEKKIPERGQCIINSNKDDRPKDLSLREGKFTDSENVCQERDADPDTFFAKFTFEYSRRHPDLSIPELLRIVQIYKDLLRNCCNTENPPGCYRYAEDKFNETTEKSLKMVQQECKHFQNLGKDGLKYHYLIRLTKIAPQLSTEELVSLGEKMVTAFTTCCTLSEEFACVDNLADLVFGELCGVNENRTINPAVDHCCKTNFAFRRPCFESLKADKTYVPPPFSQDLFTFHADMCQSQNEELQRKTDRFLVNLVKLKHELTDEELQSLFTNFANVVDKCCKAESPEVCFNEESPKIGN
B4: Apolipoprotein A-IV (protein)
chain: EVSADQVATVMWDYFSQLSNNAKEAVEHLQKSELTQQLNALFQDKLGEVNTYAGDLQKKLVPFATELHERLAKDSEKLKEEIGKELEELRARLLPHANEVSQKIGDNLRELQQRLEPYADQLRTQVSTQAEQLRRQLTPYAQRMERVLRENADSLQASLRPHADELKAKIDQNVEELKGRLTPYADEFKVKIDQTVEELRRSLAPYAQDTQEKLNHQLEGLTFQMKKNAEELKARISASAEELRQRLAPLAEDVRGNLRGNTEGLQKSLAELGGHLDQQVEEFRRRVEPYGENFNKALVQQMEQLRQKLGPHAGDVEGHLSFLEKDLRDKVNSFFSTFKEKESQDKTLSLPELEQQQEQQQEQQQEQVQMLAPLES
B5: Beta-2-glycoprotein 1 (protein)
chain: GRTCPKPDDLPFSTVVPLKTFYEPGEEITYSCKPGYVSRGGMRKFICPLTGLWPINTLKCTPRVCPFAGILENGAVRYTTFEYPNTISFSCNTGFYLNGADSAKCTEEGKWSPELPVCAPIICPPPSIPTFATLRVYKPSAGNNSLYRDTAVFECLPQHAMFGNDTITCTTHGNWTKLPECREVKCPFPSRPDNGFVNYPAKPTLYYKDKATFGCHDGYSLDGPEEIECTKLGNWSAMPSCKASCKVPVKKATVVYQGERVKIQEKFKNGMLHGDKVSFFCKNKEKKCSYTEDAQCIDGTIEVPKCFKEHSSLAFWKTDASDVKPC
B6: Histidine-rich glycoprotein (protein)
chain: VSPTDCSAVEPEAEKALDLINKRRRDGYLFQLLRIADAHLDRVENTTVYYLVLDVQESDCSVLSRKYWNDCEPPDSRRPSEIVIGQCKVIATRHSHESQDLRVIDFNCTTSSVSSALANTKDSPVLIDFFEDTERYRKQANKALEKYKEENDDFASFRVDRIERVARVRGGEGTGYFVDFSVRNCPRHHFPRHPNVFGFCRADLFYDVEALDLESPKNLVINCEVFDPQEHENINGVPPHLGHPFHWGGHERSSTTKPPFKPHGSRDHHHPHKPHEHGPPPPPDERDHSHGPPLPQGPPPLLPMSCSSCQHATFGTNGAQRHSHNNNSSDLHPHKHHSHEQHPHGHHPHAHHPHEHDTHRQHPHGHHPHGHHPHGHHPHGHHPHGHHPHCHDFQDYGPCDPPPHNQGHCCHGHGPPPGHLRRRGPGKGPRPFHCRQIGSVYRLPPLRKGEVLPLPEANFPSFPLPHHKHPLKPDNQPFPQSVSESCPGKFKSGFPQVSMFFTHTFPK

Target: T1, Abeta-42 plaque particles (Homo sapiens, UniProt P05067)
T1 construct: Abeta 1-42
Assay: Mass spectroscopy proteomics, semi-quantitative binding affinity of serum proteins (plaqueproteome, Table 2)
Details: higher number = stronger affinity
How it was run: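 AD patient serum or plasma (50% in PBS) was incubated with Abeta-42 aggregates (30 μg) for 1 h at 37 °C, then stained with Thioflavin S for 30 min. Labeled particles were FACS-sorted, trypsin/Lys-C digested overnight and analyzed by MS/MS. Sequest searched human UniProt; Scaffold/Protein Prophet validated the identifications.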

Molecule	Semi-quantitative analysis of proteins binding to different plaque particles: Abeta-42
B1	7
B2	2
B3	2
B4	5
B5	4
B6	7

Tested on: High Density cholesterol (Chl Large) plaque particles
Assay: as above
Design: species or system human
Details: higher number = stronger affinity
How it was run: (§1)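 Atherosclerotic plasma/serum (50% in PBS) + 30 μg cholesterol aggregates, 1 hr 37° C; FACS gates split low- vs high-density particles. Acetone precipitation, urea/ProteaseMAX, acrylamide alkylation, overnight Trypsin/Lys C at 37° C; Sequest search, Scaffold/Protein Prophet validation.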

Molecule	Semi-quantitative analysis of proteins binding to different plaque particles: Chl Large
B1	11
B2	9
B3	6
B4	8
B5	6
B6	10

Tested on: Low density cholesterol (Chl small) plaque particles
Assay: as above
Design: species or system human
Details: higher number = stronger affinity
How it was run: as §1

Molecule	Semi-quantitative analysis of proteins binding to different plaque particles: Chl small
B1	7
B2	11
B3	6
B4	9
B5	6
B6	9

Target: T2, alpha-synuclein plaque particles (Homo sapiens, UniProt P37840)
T2 construct: 140 amino acids polypeptide
Assay: as above
Details: higher number = stronger affinity
How it was run: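 AD-subject plasma or serum (800 μL of 50%) mixed with 30 μg preformed alpha-synuclein aggregates for 1 h at 37 °C; Thioflavin S-positive particles isolated by flow sorting. After reduction, acrylamide alkylation and overnight tryptic digestion, serum proteins identified by MS/MS with Sequest and Scaffold.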

Molecule	Semi-quantitative analysis of proteins binding to different plaque particles: Synuclein
B1	10
B2	10
B3	6
B4	7
B5	7
B6	9

Tested on: Tau plaque particles
Assay: as above
Design: species or system human
Details: higher number = stronger affinity
How it was run: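 Synthetic Tau-74 and Tau-275 peptides (1 mg/mL PBS, 37° C, 2 h) aggregated; 30 μg aggregates incubated with 50% serum/plasma 1 h at 37° C, stained with Thioflavin S, and plaque particles sorted by flow cytometry. Bound proteins trypsin-digested and identified by MS/MS against human UniProt.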

Molecule	Semi-quantitative analysis of proteins binding to different plaque particles: Tau
B1	18
B2	10
B3	3
B4	10
B5	5
B6	12
